Where no end group is shown, it is not given here.

In assay [1] the test system is murine naïve lymph node T cells. The experiment in a line: T cell proliferation (3H-thymidine incorporation), anti-CD3/CD28 stimulation. Format: cell-based. The protocol: Primary murine T cells were prepared from lymph nodes by negative selection. Briefly, axillary, inguinal, and mesenteric lymph nodes were teased apart to make a single cell suspension, then washed and layered over Ficoll. The buffy coat was washed 2 times and then incubated with the antibody mix and the magnetic beads following the manufacturer's instructions (mouse T-cell negative isolation kit; Dynal, Bromborough, United Kingdom). In some experiments, cells were further purified to obtain naive CD62L^+ CD4^+ T cells by using the Miltenyi Biotec CD62L^+ CD4^+ T-cell isolation kit. Th0 conditions were created by T cells for 4 days in 6-well plates precoated with anti-CD3 (5 μg/mL) and anti-CD28 (5 μg/mL) in complete RPMI medium (10% fetal calf serum [FCS], 2 mM L-glutamine, and 100 units mL^−1 gentamycin) containing murine IL-2 (20 U/mL). […]
Purified lymph node T cells (10^5 cells/mL) were incubated with medium alone or with different concentrations of hrAnx-A1 for 2 hours at 37° C. in Eppendorf tubes. […] After 18 hours, cultures were pulsed for 8 hours with 1 μCi (3.7×10^4 Bg) [^3H]-thymidine (Amersham Pharmacia Biotech, Piscataway, N.J.) and incorporated radioactivity was measured by automated scintillation counter (Packard Instruments, Pangbourne, United Kingdom). […]

The test system is the same in assay [2]. The assay is described as follows: IL-2 production from anti-CD3/CD28 stimulated T cells. Format: cell-based. The procedure:
The effects of an N-terminal peptide of hrAnx-A1 (peptide Ac 2-26) and of full length hrAnx-A1 on T cell activation were investigated. IL-2 production from murine naïve lymph node T cells was stimulated with 0.6, 1.25 or 2.5 μg/ml of anti-CD3/CD28 in the presence or absence of full length hrAnx-A1 (300 nM) or the Anx-A1 derived N-terminal peptide Ac.2-26 (100 μM) for 24 hrs.

Assay [3] has the same test system. The assay is described as follows: CD25 and CD69 cell surface expression by FACS. It is filed as cell-based. As to conditions: hrAnx-A1 150, 300, 600 nM; anti-CD3/CD28 1.25-5.0 μg/ml, 12 hrs; FIGS. 3C, 3D. The procedure:
Purified lymph node T cells were pretreated with human recombinant Anx-A1 for 2 hours at 37° C. in Eppendorf tubes and then stimulated with plate-bound anti-CD3 and anti-CD28 as indicated in the figures. After 16 hours, the cells were stained with PE-conjugated anti-CD69 (clone H1.2F3) and FITC-conjugated anti-CD25 (clone PC61.5) diluted in FACS buffer (PBS containing 1% FCS and 0.02% […]). Intact cells were gated by using forward and side scatter and were analyzed with the CellQuest program (Becton Dickinson, Franklin Lakes, N.J.) on a FACScan flow cytometer. […]
Murine naïve lymph node T cells were stimulated with anti-CD3/CD28 at a concentration of 1.25 μg/ml (left column), 2.5 μg/ml (middle column) and 5.0 μg/ml (right column), in the absence of (upper panels) or in the presence of (lower panels) hrAnx-A1 (600 nM) for 12 hrs and then analyzed for CD25 and CD69 expression by FACS.
In FIG. 3D, murine naïve lymph node T cells were stimulated with the indicated concentration of anti-CD3/CD28 in the presence of 150 (X), 300 ( ? ) and 600 (◯) nM of hrAnx-A1 for 12 hours and then analysed for CD25 (left graph) and CD69 (right graph) expression by FACS.
On the technique in general: Flow cytometry measures light scatter and fluorescence of single cells or particles in a stream.

Assay [4] relates to Activator Protein-1 (AP-1). The experiment in a line: Electrophoretic Mobility Shift Assay for AP-1 activation in T cells. Format: cell-based. As to conditions: T cells stimulated with anti-CD3/CD28 1.25 μg/ml in presence of hrAnx-A1; FIG. 5A. The procedure: (§1) Nuclear extracts were harvested from 3×10^6 to 5×10^6 cells according to previously described protocols. Nuclear extracts (3 μg to 5 μg) were incubated with 1 μg (for NFAT) or 2 μg (for NF-κB and AP-1) of poly (dI:dC) in 20 μL binding buffer with ^32P end-labeled, double-stranded oligonucleotide probes (5×10^5 cpm), and fractionated on a 6% polyacrylamide gel (29:1 cross-linking ratio) in 0.5% TBE for 2.5 hours at 150 V. The NF-κB and AP-1 binding buffer (10×) contained 100 mM Tris-HCl, (pH 7.5), 500 mM NaCl, 10 mM EDTA, 50% glycerol, 10 mg/mL albumin, 30 mM GTP, 10 mM DTT. The NFAT binding buffer (10×) contained 100 mM Hepes (pH 7.9), 500 mM KCl, 1 mM EDTA, 1 mM EGTA, 50% glycerol, 5 mg/mL albumin, 1% Nonidet P-40, 10 mM DTT. The NF-κB and AP-1 double-stranded oligonucleotide probes were from Promega and the NFAT was from Santa Cruz Biotechnology (Santa Cruz, Calif.).
(§2) Investigations were carried out into how exogenous and endogenous Anx-A1 modulates T cell activation. The three major transcriptional activators of T cells, namely Activator Protein-1 (AP-1), Nuclear Factor-κB (NF-κB) and Nuclear Factor of Activated T cells (NFAT) were analysed in cells stimulated in presence of hrAnx-A1. […]
(Mobility shift assays separate free from complexed probe on a gel.)

The test system of assay [5] is Nuclear Factor-κB (NF-κB). The assay is described as follows: Electrophoretic Mobility Shift Assay for NF-κB activation in T cells. It is filed as cell-based. The note with it: T cells stimulated with anti-CD3/CD28 1.25 μg/ml in presence of hrAnx-A1; FIG. 5A. The protocol: as §1, §2
Assay [6] deals with Nuclear Factor of Activated T cells (NFAT). The assay is described as follows: Electrophoretic Mobility Shift Assay for NFAT activation in T cells. As to conditions: T cells stimulated with anti-CD3/CD28 1.25 μg/ml in presence of hrAnx-A1; FIG. 5A. It is filed as cell-based. The protocol: as §1, §2
Another assay concerns naïve lymph node T cells. The assay is described as follows: Th1/Th2 differentiation in vitro, cytokine production on anti-CD3 restimulation. Format: cell-based, mice. The note with it: Th1 or Th2 conditions, hrAnx-A1 600 nM, anti-CD3 5.0 μg/ml re-stimulation 8 h; FIG. 7A. The protocol:
Primary murine T cells were prepared from lymph nodes by negative selection. Briefly, axillary, inguinal, and mesenteric lymph nodes were teased apart to make a single cell suspension, then washed and layered over Ficoll. The buffy coat was washed 2 times and then incubated with the antibody mix and the magnetic beads following the manufacturer's instructions (mouse T-cell negative isolation kit; Dynal, Bromborough, United Kingdom). In some experiments, cells were further purified to obtain naive CD62L^+ CD4^+ T cells by using the Miltenyi Biotec CD62L^+ CD4^+ T-cell isolation kit. Th0 conditions were created by T cells for 4 days in 6-well plates precoated with anti-CD3 (5 μg/mL) and anti-CD28 (5 μg/mL) in complete RPMI medium (10% fetal calf serum [FCS], 2 mM L-glutamine, and 100 units mL^−1 gentamycin) containing murine IL-2 (20 U/mL). Th1 conditions were created with murine IL-12 (3.4 ng/mL; eBioscience), IL-2 (20 U/mL; eBioscience), and anti-IL4 (clone 11B11; 2 μg/mL). Th2 conditions were created with IL-4 (3000 U/mL; Peprotech, Rocky Hill, N.J.), IL-2 (20 U/mL), and anti-IFN-γ (clone XMG1.2; 2 μg/mL). Jurkat cells were obtained from ATCC (Manassas, Va.) and were cultured in complete RPMI medium.
For Th1/Th2 cytokine production analysis, Th0/Th1/Th2 cells (10^6/mL) obtained after 4-day differentiation in skewing conditions and 1 day of resting in complete RPMI medium, were stimulated with plate-bound anti-CD3 (5 μg/mL) for 8 h in 24-well plates. Culture supernatants were collected and analyzed for IFN-γ, IL-2, IL-4 and IL-10 content by using Th1/Th2 panel ELISA kit (eBioscience). The IL-13 ELISA kit was also purchased from eBioscience.
Naïve lymph node T cells were differentiated in vitro in Th1 (black bars) or Th2 (white bars) conditions in presence or absence of hrAnx-A1 (600 nM) and then restimulated with plate-bound anti-CD3 (5.0 μg/ml) for 8 h to measure Th1 or Th2 cytokine production. Values are mean±S.E. of n=4-5 mice. **P<0.01

The next assay has as its system DBA mice. The experiment in a line: collagen-induced arthritis (CIA) model. The note with it: 1 μg s.c. twice a day for 12 days after immunization with collagen, compared to PBS vehicle; FIGS. 8A, 8B. It is filed as in vivo. The procedure:
Mice were injected with hrAnx-A1 daily for 12 days after immunization with collagen (time during which naïve cells differentiate in Th effector cells) and thereafter the progression of the disease upon antigen challenge was analyzed. […] Synchronization of disease onset was obtained by boosting with collagen on day 21, and clinical signs were evident from day 22 (day 1 of the onset of the diseases). Values are mean±S.E. of n=6-8 mice. Groups were compared using the Maim-Whitney test. *P<0.01

Turning to “CH3CO-AMVSEFLKQA WFIENEEQEYVQTVK (Ac-AMVSEFLKQAWFIENEEQEYVQTVK; listed as Homo sapiens) [Ac.2-26, reference compound]”, the T cell proliferation entry in assay [1] (Ac.2-26, data not shown) is reported as “increased”. In assay [2] (Ac.2-26 100 μM, anti-CD3/CD28 0.6, 1.25 or 2.5 μg/ml, 24 hrs, FIG. 9), the IL-2 production result is recorded as “increased”.

B1: hrAnx-A1: Endotoxin-free human recombinant Anx-A1 (Annexin-1, 37-kDa protein) (protein, UniProt P04083 1-346, looked up)
chain: MAMVSEFLKQAWFIENEEQEYVQTVKSSKGGPGSAVSPYPTFNPSSDVAALHKAIMVKGVDEATIIDILTKRNNAQRQQIKAAYLQETGKPLDETLKKALTGHLEEVVLALLKTPAQFDADELRAAMKGLGTDEDTLIEILASRTNKEIRDINRVYREELKRDLAKDITSDTSGDFRNALLSLAKGDRSEDFGVNEDLADSDARALYEAGERRKGTDVNVFNTILTTRSYPQLRRVFQKYTKYSKHDMNKVLDLELKGDIEKCLTAIVKCATSKPAFFAEKLHQAMKGVGTRHKALIRIMVSRSEIDMNDIKAFYQKMYGISLCQAILDETKGDYEKILVALCGGN
modifications: full-length
As for B1, the cell proliferation result in assay [1] (pre-treatment with hrAnx-A1, anti-CD3/CD28 5.0, 2.5 and 1.25 μg/ml, 24 hrs, FIG. 3A) was “augmented”. In assay [2] (anti-CD3/CD28 1.25 μg/ml, different concentrations of hrAnx-A1, 24 hrs, FIG. 3B), the IL-2 production entry was “augmented”. In addition, in assay [3], the “cell surface expression of CD25” value was “augmented” and the “cell surface expression of CD69” value is recorded as “augmented”. In addition, the “activation of AP-1” value in assay [4] is listed as “increased activation”. The “activation of NF-κB” value in assay [5] is “increased activation”. Further, in assay [6], the “activation of NFAT” value is “increased activation”. For the same molecule, in the assay on naïve lymph node T cells, the IFNγ production result is listed as “increased”, the IL2 production entry is “increased”, the IL4 release entry is recorded as “decrease” and the “IL 10 release” value was “decrease”. In the assay with DBA mice, the “signs and symptoms of arthritis (paw volume, clinical score)” value was “exacerbated”.
